Assay results: patent publication US20240082389A1

Molecular target: ALFA nanobody (ALFANb) fused to the N-terminus of PTGFRN, displayed on the exterior surface of exosomes (UniProt Q9P2B2)
Assay: IL-12 ELISA of loaded EVs

fold more IL-12 loaded per EV than on control EVs with IL-12 genetically fused to PTGFRN: 290 fold
Substance: mouse IL-12 fused to ALFAtag peptide (ligand)
